Experimental data taken from patent US20260217813A1 (published 2026).

T1: human IL-23 (IL-23-His-Biotin, Akesobio, 20161209) (human, UniProt Q9NPF7 20-189; P29460 23-328)
T1 construct: His-tagged and biotinylated; also called human IL23-His-Biotin
T1 sequence (looked up) 1: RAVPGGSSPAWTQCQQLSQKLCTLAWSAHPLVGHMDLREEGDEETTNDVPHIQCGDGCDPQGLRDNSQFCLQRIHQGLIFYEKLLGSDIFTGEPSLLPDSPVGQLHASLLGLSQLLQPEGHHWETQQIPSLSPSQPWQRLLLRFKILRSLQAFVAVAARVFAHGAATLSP
T1 sequence (looked up) 2: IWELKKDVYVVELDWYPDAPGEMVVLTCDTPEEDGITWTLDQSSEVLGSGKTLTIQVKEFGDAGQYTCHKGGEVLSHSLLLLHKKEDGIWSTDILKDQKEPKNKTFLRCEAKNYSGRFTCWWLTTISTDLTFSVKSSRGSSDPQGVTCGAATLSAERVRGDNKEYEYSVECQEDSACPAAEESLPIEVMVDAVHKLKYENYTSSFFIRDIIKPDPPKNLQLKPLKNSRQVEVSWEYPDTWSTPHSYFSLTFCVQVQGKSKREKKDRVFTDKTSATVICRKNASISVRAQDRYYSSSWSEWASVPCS

T2: IL-12 (Human IL12 (His Tag)), Sino Biological Cat. No. CT-050-H08H-20 (human, UniProt P29460 23-328; P29459 23-219)
T2 construct: Bought His-tagged p35/p40 heterodimer
T2 sequence (looked up) 1: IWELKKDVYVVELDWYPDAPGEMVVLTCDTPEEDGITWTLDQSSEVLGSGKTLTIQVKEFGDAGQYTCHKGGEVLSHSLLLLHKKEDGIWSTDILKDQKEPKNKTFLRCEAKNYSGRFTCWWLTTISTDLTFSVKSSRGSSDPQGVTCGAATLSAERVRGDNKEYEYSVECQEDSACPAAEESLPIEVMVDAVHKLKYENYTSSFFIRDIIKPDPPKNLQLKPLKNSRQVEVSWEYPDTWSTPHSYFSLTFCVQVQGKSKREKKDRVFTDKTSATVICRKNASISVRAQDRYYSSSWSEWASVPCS
T2 sequence (looked up) 2: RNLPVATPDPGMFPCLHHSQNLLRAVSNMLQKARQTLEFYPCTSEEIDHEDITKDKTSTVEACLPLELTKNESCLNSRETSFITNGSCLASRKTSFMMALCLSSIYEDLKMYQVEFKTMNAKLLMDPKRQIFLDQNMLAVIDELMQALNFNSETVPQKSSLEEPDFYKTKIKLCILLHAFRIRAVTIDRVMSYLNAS


Columns and labels:
[1] = biological target: T1, human IL-23 (IL-23-His-Biotin, …); experiment: FACS competition, IL-23-His-Biotin 2 µg/mL on 293T-IL-12RB1&IL-23R cells, antibody 10 µg/mL
Procedure: (§1) 2.1. […] 200 μL of 1% PBSA was added into each sample, and the mixture was centrifuged at 700×g for 5 min to discard the supernatant. According to experiment design, correspondingly diluted antibody (highest final concentration of 30 μg/mL, 3-fold dilution, 8 concentrations in total) and human IL-23 (IL-23-His-Biotin, Akesobio, 20161209) (final concentration of 2 μg/mL) were mixed at a ratio of 1:1, and a blank control was set. The mixture of antibody and human IL23 was incubated on ice for 30 min and then added to the cell precipitate at 100 μL/sample. The resulting mixture was well mixed and incubated on ice for 60 min. 200 μL of 1% PBSA was added, and the mixture was centrifuged at 700×g for 5 min to discard the supernatant, and then washed twice. FITC Streptavidin (Biolegend, Cat. No.: 405202) was diluted at a ratio of 1:500 and added to each tube at 100 μL. The mixture was well mixed and incubated on ice for 40 min in the absence of light. 200 μL of 1% PBSA was added, and the mixture was centrifuged at 700×g for 5 min to discard the supernatant, and then washed twice. 1% PBSA was added at 200 μL/tube, and the cells were resuspended and transferred to a flow cytometry tube for testing.

[2] = biological target: T2, IL-12 (Human IL12 (His Tag)), Sino …; experiment: FACS competition, IL-12-His 20 nM on 293T-IL-12RB1&IL-23R cells, antibody 0.01 µg/mL
Procedure: (§2) 200 μL of 1% PBSA was added into each sample, and the mixture was centrifuged at 700×g for 5 min to discard the supernatant. According to experiment design, correspondingly diluted antibody (highest final concentration of 30 μg/mL, 3-fold dilution, 8 concentrations in total) and human IL-12 (Sino Biological, Cat. No.: CT-050-H08H-20) (final concentration of 20 nM) were mixed at a ratio of 1:1, and a blank control was set. The mixture of antibody and human IL12 was incubated on ice for 30 min and then added to the cell precipitate at 100 μL/sample. The resulting mixture was well mixed and incubated on ice for 60 min. 200 μL of 1% PBSA was added, and the mixture was centrifuged at 700×g for 5 min to discard the supernatant, and then washed twice. Alexa Fluor® 488 anti-His tag antibody (Biolegend, Cat. No.: 652509) was diluted at a ratio of 1:400 and added to each tube at 100 μL. The mixture was well mixed and incubated on ice for 40 min in the absence of light. 200 μL of 1% PBSA was added, and the mixture was centrifuged at 700×g for 5 min to discard the supernatant, and then washed twice. 1% PBSA was added at 200 μL/tube, and the cells were resuspended and transferred to a flow cytometry tube for testing.

[3] = biological target: T2, IL-12 (Human IL12 (His Tag)), Sino …; experiment: FACS competition, IL-12-His 20 nM on 293T-IL-12RB1&IL-23R cells, antibody 1.11 µg/mL
Procedure: as §2

[4] = biological target: T1, human IL-23 (IL-23-His-Biotin, …); experiment: FACS competition, IL-23-His-Biotin 2 µg/mL on 293T-IL-12RB1&IL-23R cells, antibody 0.12 µg/mL
Procedure: as §1

[5] = biological target: T1, human IL-23 (IL-23-His-Biotin, …); experiment: FACS competition, IL-23-His-Biotin 2 µg/mL on 293T-IL-12RB1&IL-23R cells, antibody 0.01 µg/mL
Procedure: as §1

[6] = biological target: T2, IL-12 (Human IL12 (His Tag)), Sino …; experiment: FACS competition, IL-12-His 20 nM on 293T-IL-12RB1&IL-23R cells, antibody 3.33 µg/mL
Procedure: as §2

[7] = biological target: T2, IL-12 (Human IL12 (His Tag)), Sino …; experiment: FACS competition, IL-12-His 20 nM on 293T-IL-12RB1&IL-23R cells, antibody 0.37 µg/mL
Procedure: as §2

[8] = biological target: T1, human IL-23 (IL-23-His-Biotin, …); experiment: FACS competition, IL-23-His-Biotin 2 µg/mL on 293T-IL-12RB1&IL-23R cells, antibody 30 µg/mL
Procedure: as §1

MFI [1] | MFI [2] | MFI [3] | MFI [4] | MFI [5] | MFI [6] | MFI [7] | MFI [8] | Binder
16.7 | 149 | 66 | 203 | 218 | 51.9 | 113 | 14.1 | H5L14 (antibody, human IgG1, kappa, V domains shown, IgG1/kappa) VH: EVQLVQSGAEVKKPGESLKISCQSSGYSFTTYWIGWVRQMPGQGLEWIGIMSPVDSDIRYNPMFRGQVTMSVDKSSSTAYLQWSSLKASDTAMYYCARRRPGQGYFDFWGQGTMVTVSS VL: EIVLTQSPATLSASPGERATISCRASQSVSSWLAWYQQKPGQAPRSLIYAASNLQSGIPARFSGSGSGTDFTLTISSLEPEDFAVYYCQQYNIYPFTFGQGTRLEIKR
11.5 | 160 | 31.9 | 211 | 219 | 29.7 | 95.7 | 9.64 | ustekinumab (trade name Stelara) (antibody, V domains shown) VH: EVQLVQSGAEVKKPGESLKISCKGSGYSFTTYWLGWVRQMPGKGLDWIGIMSPVDSDIRYSPSFQGQVTMSVDKSITTAYLQWNSLKASDTAMYYCARRRPGQGYFDFWGQGTLVTVSS VL: DIQMTQSPSSLSASVGDRVTITCRASQGISSWLAWYQQKPEKAPKSLIYAASSLQSGVPSRFSGSGSGTDFTLTISSLQPEDFATYYCQQYNIYPYTFGQGTKLEIK

The remaining lines, values behind:

Binder | MFI [1] | MFI [2] | MFI [3] | MFI [4] | MFI [5] | MFI [6] | MFI [7] | MFI [8]
H5L9 (antibody, human IgG1, kappa, V domains shown, Humanized anti-human IL-12/IL-23 p40 antibody; IgG1 (P01857) / kappa (P01834) constant regions) VH: EVQLVQSGAEVKKPGESLKISCQSSGYSFTTYWIGWVRQMPGQGLEWIGIMSPVDSDIRYNPMFRGQVTMSVDKSSSTAYLQWSSLKASDTAMYYCARRRPGQGYFDFWGQGTMVTVSS VL: DIQMTQSPSSLSASVGDRVTITCKASQNVGSWLAWYQQKPGKAPKSLIYSASSRQSGVPSRFSGSGSGTDFTLTISSLQPEDFATYYCQQYDIYPFTFGQGTKLEIKR | 136 | 169 | 157 | 217 | 222 | 146 | 159 | 104
H5L10 (antibody, human IgG1, kappa, V domains shown, IgG1/kappa) VH: EVQLVQSGAEVKKPGESLKISCQSSGYSFTTYWIGWVRQMPGQGLEWIGIMSPVDSDIRYNPMFRGQVTMSVDKSSSTAYLQWSSLKASDTAMYYCARRRPGQGYFDFWGQGTMVTVSS VL: EIVLTQSPATLSASPGERATISCRASQSVGSWLAWYQQKPGQAPRSLIYAASNLQSGIPARFSGSGSGTDFTLTISSLEPEDFAVYYCQQYNIYPYTFGQGTRLEIKR | 12.7 | 163 | 44.6 | 221 | 223 | 40.2 | 87.5 | 11.9
H5L12 (antibody, human IgG1, kappa, V domains shown, IgG1/kappa) VH: EVQLVQSGAEVKKPGESLKISCQSSGYSFTTYWIGWVRQMPGQGLEWIGIMSPVDSDIRYNPMFRGQVTMSVDKSSSTAYLQWSSLKASDTAMYYCARRRPGQGYFDFWGQGTMVTVSS VL: EIVLTQSPATLSASPGERATISCRASQSVSSWLAWYQQKPGQAPRSLIYAASNRQSGIPARFSGSGSGTDFTLTISSLEPEDFAVYYCQQYNIYPYTFGQGTRLEIKR | 12.7 | 161 | 38.5 | 211 | 221 | 31.8 | 86.6 | 12.3
H5L11 (antibody, human IgG1, kappa, V domains shown, IgG1/kappa) VH: EVQLVQSGAEVKKPGESLKISCQSSGYSFTTYWIGWVRQMPGQGLEWIGIMSPVDSDIRYNPMFRGQVTMSVDKSSSTAYLQWSSLKASDTAMYYCARRRPGQGYFDFWGQGTMVTVSS VL: EIVLTQSPATLSASPGERATISCRASQSVSSWLAWYQQKPGQAPRSLIYSASNLQSGIPARFSGSGSGTDFTLTISSLEPEDFAVYYCQQYNIYPYTFGQGTRLEIKR | 14.5 | 166 | 54.3 | 219 | 219 | 42.2 | 103 | 12.9
